From paper PMC9574550, “Protein engineering approach to enhance activity assays of mono-ADP-ribosyltransferases through proximity” (Protein Engineering, Design and Selection, 2022)

What was measured:
[1] = biological target: C8 scaffold (eight tandem repeats of H. thermocellum CipA cohesin 1) (Hungateiclostridium thermocellum) (UniProt Q06851); assay: SEC-MALS; 35 μM enzyme mixed with C8 scaffold in SEC buffer with 2 mM CaCl2, S200 Increase 10/300; apparent excess of PARP10-Dock (limited C8 scaffold)
[2] = biological target: C8 scaffold (eight tandem repeats of H. thermocellum CipA cohesin 1) (Hungateiclostridium thermocellum) (UniProt Q06851); assay: SEC-MALS; 35 μM enzyme mixed with C8 scaffold in SEC buffer with 2 mM CaCl2, S200 Increase 10/300; ratio that resulted in no visible unbound PARP10-Dock (saturating conditions)
[3] = biological target: T1, PARP16 (Homo sapiens, UniProt Q8N5Y8); assay: homogeneous NAD+ conversion assay, dose-response; type: biochemical
T1 construct: catalytic fragment, MBP-PARP16-Dockerin (PARP16-Dock) on C8 scaffold
T1 sequence (Q8N5Y8 94-279 limits assumed): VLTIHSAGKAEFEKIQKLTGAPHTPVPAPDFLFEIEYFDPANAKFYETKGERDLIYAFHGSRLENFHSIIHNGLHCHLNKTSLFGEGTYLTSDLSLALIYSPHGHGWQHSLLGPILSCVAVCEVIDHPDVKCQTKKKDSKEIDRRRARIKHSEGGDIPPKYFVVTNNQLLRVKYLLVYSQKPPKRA

| stoichiometry N (PARP10-Dock per C8 scaffold) [1] | stoichiometry N (PARP10-Dock per C8 scaffold) [2] | IC50 [3] [µM] | Compound |
| --- | --- | --- | --- |
| < 8 | 7 |  | PARP10-Dock (MBP-PARP10 catalytic fragment-Cel48S dockerin) (from UniProt A3DH67 673-739) (enzyme) |
|  |  | 38 | CN(C)CC(=O)Nc1ccc2[nH]c(=O)c3ccccc3c2c1 [PJ34] |
